Measurements from patent US10357573B2, “Block copolymer conjugate of physiologically active substance” (Nippon Kayaku Kabushiki Kaisha, priority 2015, dated 2019).
Read-outs that look alike come from different tables or passages of the source.

Key:
[1] = Test Example A-4 hematotoxicity test in non-tumor bearing rat; type: in vivo, Sprague-Dawley rats; details: 40 mg/kg as converted to 7-ethyl-10-hydroxycamptothecin; for prolonged hematotoxicity: 7 days after administration; for Number of blood reticulocytes: iv once, 7th day after administration
From the text: The resultant solutions were used as analysis samples.

[2] = tested on: human stomach cancer SC-4-JCK; experiment: Test Example A-5 antitumor effect in human stomach cancer-transplanted nude mouse; type: in vivo; details: 12 mg/kg as converted to 7-ethyl-10-hydroxycamptothecin, iv once; for Relative tumor volume: 14th day after administration, day of administration = 1.0, average ± SD
Procedure: A tumor mass of human stomach cancer SC-4-JCK that had been subcutaneously subcultured in a nude mouse was cut into a block having a size of about 3 mm on each side, and this block was subcutaneously transplanted on the dorsal side of a nude mouse using a trocar.
A relative tumor volume was determined from the tumor volumes obtained on the day of administration and on the 14th day after the administration, and this was employed as an index for the antitumor effect. The tumor volume was determined by measuring the major axis (L: mm) and the minor axis (W: mm) of the tumor, and calculating the volume by the calculation formula: (L×W^2)/2.

[3] = Volume average particle diameter by dynamic light scattering; type: physicochemical; details: device A, 1 mg/mL
Procedure: Measurement of the volume average particle diameters of the physiologically active substance-conjugated block copolymers of Examples and Comparative Examples was carried out using a ZetaPotential/Particlesizer NICOMP 380 ZLS (device A; temperature: 25° C.) manufactured by Particle Sizing Systems, LLC, or a particle size zeta potential analyzer, ZETASIZER NANO ZS (device B; measurement temperature: 25° C., analysis model: General Purpose (normal resolution), material RI: 1.59) manufactured by Malvern Instruments, Ltd. Regarding the volume average particle diameter measurement sample, a solution obtained by adding ultrapure water to a physiologically active substance-conjugated block copolymer to obtain a concentration of 1 mg/mL or 5 mg/mL, dissolving the block copolymer by irradiating the mixture with ultrasonic waves for 10 minutes under ice cooling, and then filtering the solution through a 0.2-μm membrane filter, was used.

[4] = Light scattering intensity of 1 mg/mL aqueous solution, relative to toluene; type: physicochemical; details: for relative ratio between the light scattering intensity and the light scattering intensity of toluene: 1 mg/mL aqueous solution vs standard toluene solution under the same conditions; for light scattering intensity of a 1 mg/mL aqueous solution: 1 mg/mL in ultrapure water, 25° C., wavelength 632.8 nm
Procedure: Regarding the measurement sample for the scattering intensity measurement, a solution obtained by adding ultrapure water to a physiologically active substance-conjugated block copolymer to obtain a concentration of 1 mg/mL, dissolving the block copolymer by irradiating the mixture with ultrasonic waves for 10 minutes under ice cooling, and then filtering the solution through a 0.2-μm membrane filter, was used.
Toluene (manufactured by Junsei Chemical Co., Ltd., special grade) that was used for the measurement of the light scattering intensity, was used after being filtered three times through a 0.2-μm membrane filter.

[5] = Test Example A-3 hepatotoxicity test in non-tumor bearing mouse; type: in vivo, Crl:CD1(ICR)(ICR(IGS)) mice; parameters: ALT: unit not given here; details: for ALT: iv once, blood plasma 3 days after administration; for hepatotoxicity: maximum tolerated dose iv once, 3 days after administration
Procedure: The blood plasma obtained by centrifuging the blood thus collected (4° C., 1600×g, 10 minutes) was used as a measurement sample, and a blood chemical examination of the measurement sample was performed using an automatic biochemical analysis apparatus Model 7180 (Hitachi High Technologies Corp.).

[6] = for Number of blood reticulocytes: 60 mg/kg as converted to cabazitaxel, iv once, 5th day after administration
Procedure: As a control group, a 5% glucose injection solution was intravenously administered once through the caudal vein.
Polysorbate 80 was added thereto in an amount equal to the amount of anhydrous ethanol, and the mixture was sufficiently mixed. This was used as a preparation stock solution.
After 3, 5, 7, 11, and 14 days from the day of administration of the various compounds, blood was collected through the subclavian vein without anesthesia using a 1-mL disposable syringe with a 26 G needle. About 3 μL of an EDTA-2K solution had been added in advance to the syringe, and this solution was sufficiently mixed with the blood thus collected. The resultant solutions were used as analysis samples. The blood samples were subjected to a blood cell analysis using a blood cell analysis apparatus XT-2000iV (Sysmex Corp.).

[7] = Maximum tolerated dose / maximum non-lethal dose, single intravenous administration; type: in vivo, mice; details: iv once through the caudal vein; for maximum tolerated dose: as converted to cabazitaxel
[8] = tested on: human lung cancer H460; experiment: Test Example C-4 antitumor effect test in human lung cancer-transplanted nude mouse; type: in vivo; details: for Relative tumor volume: iv once, 15th day after administration, day of administration = 1.0, average ± SD; for antitumor effect: compared to cabazitaxel 30 mg/kg
Procedure: A tumor mass of human lung cancer H460 that had been subcutaneously subcultured in a nude mouse was cut into a block having a size of about 3 mm on each side, and this block was subcutaneously transplanted on the dorsal side of a nude mouse using a trocar.
(§1) A relative tumor volume was determined from the tumor volumes obtained on the day of administration and on the 15th day after the administration, and this was employed as an index for the antitumor effect. The tumor volume was determined by measuring the major axis (L: mm) and the minor axis (W: mm) of the tumor, and calculating the volume by the calculation formula: (L×W^2)/2.

[9] = tested on: human pancreatic cancer BxPC3; experiment: Test Example C-3 antitumor effect test in human pancreatic cancer-transplanted nude mouse; type: in vivo; details: for Relative tumor volume: iv once, 8th day after administration, day of administration = 1.0, average ± SD; for antitumor effect: compared to cabazitaxel 30 mg/kg
Procedure: A tumor mass of human pancreatic cancer BxPC3 that had been subcutaneously subcultured in a nude mouse was cut into a block having a size of about 3 mm on each side, and this block was subcutaneously transplanted on the dorsal side of a nude mouse using a trocar.
as §1, with “8th” for “15th”

[10] = dose 100 mg/kg as converted to 7-ethyl-10-hydroxycamptothecin (maximum tolerated dose)
[11] = 60 mg/kg as converted to cabazitaxel

Molecule	prolonged hematotoxicity [1]	Number of blood reticulocytes [1]	Relative tumor volume [2]	volume average particle diameter [3]	relative ratio between the light scattering intensity and the light scattering intensity of toluene [4]	light scattering intensity of a 1 mg/mL aqueous solution [4]	ALT [5, 10]	hepatotoxicity [5]	maximum tolerated dose [7]	antitumor effect [8, 11]	Relative tumor volume [8, 11]	antitumor effect [9, 11]	Relative tumor volume [9, 11]	other results
7-ethyl-10-Hydroxycamptothecin (EHC) Conjugate of polyethylene glycol (5 Kilodaltons)-polyglutamic Acid (10.0 Polymer) Block Copolymer [Example A-3]	prolonged hematotoxicity was not recognized	54.29 ± 8.49 ×10^4/μL	1.574 ± 0.388	8 nm	3.0 times	16,750 cps	–	–	–	–	–	–	–	antitumor effect [2]: stronger antitumor effect compared to the Comparative Examples
7-ethyl-10-hydroxycamptothecin (EHC) Conjugate of polyethylene glycol (2 Kilodaltons)-polyglutamic Acid (7.6 Polymer) Block Copolymer [Example A-1]	prolonged hematotoxicity was not recognized	64.18 ± 4.43 ×10^4/μL	2.466 ± 0.398	6 nm	3.1 times	17,070 cps	64 ± 25	hepatotoxicity was negligible	–	–	–	–	–	–
7-ethyl-10-hydroxycamptothecin (EHC) Conjugate of polyethylene glycol (2 Kilodaltons)-polyglutamic Acid (10.0 Polymer) Block Copolymer [Example A-2]	–	–	2.593 ± 0.482	10 nm	4.9 times	27,149 cps	55 ± 54	hepatotoxicity was negligible	–	–	–	–	–	–
7-ethyl-10-hydroxycamptothecin (EHC) Conjugate of polyethylene glycol (3 Kilodaltons)-polyglutamic Acid (6.6 Polymer) Block Copolymer [Comparative Example A-2, reference compound]	–	66.17 ± 7.74 ×10^4/μL	2.426 ± 1.122	–	1.80 times	9,964 cps	528 ± 681	occurrence of hepatotoxicity was acknowledged	–	–	–	–	–	self-association in aqueous solution [4]: non-associating
7-ethyl-10-hydroxycamptothecin (EHC) Conjugate of polyethylene glycol (12 Kilodaltons)-polyglutamic Acid (7.5 Polymer) Block Copolymer [Comparative Example A-3]	–	–	–	–	1.0 times	5,625 cps	–	hepatotoxicity was clearly manifested	–	–	–	–	–	ALT ([5]; dose 50 mg/kg as converted to 7-ethyl-10-hydroxycamptothecin (maximum tolerated dose)): 114 ± 68; self-association in aqueous solution [4]: non-associating
7-ethyl-10-hydroxycamptothecin (EHC) Conjugate of polyethylene glycol (12 Kilodaltons)-polyglutamic Acid (25 Polymer) Block Copolymer [Comparative Example A-1, reference compound]	prolonged hematotoxicity was recognized	20.26 ± 11.50 ×10^4/μL	2.232 ± 0.534	20 nm	7.5 times	41,321 cps	–	–	–	–	–	–	–	–
CO[C@H]1C(=O)[C@]2(C)[C@@H](OC)C[C@H]3OC[C@@]3(OC(C)=O)[C@H]2[C@H](OC(=O)c2ccccc2)[C@]2(O)C[C@H](OC(=O)[C@H](O)[C@@H](NC(=O)OC(C)(C)C)c3ccccc3)C(C)=C1C2(C)C [Cabazitaxel, reference compound]	–	–	–	–	–	–	–	–	–	–	–	–	–	prolonged hematotoxicity ([6]; mouse, in vivo): prolonged hematotoxicity was not recognized; maximum non-lethal dose [7]: 30 mg/kg; Relative tumor volume ([8]; 30 mg/kg): 1.476 ± 0.509; Relative tumor volume ([9]; 30 mg/kg): 1.19 ± 0.21
Cabazitaxel (CBZ) Conjugate of polyethylene glycol (5 Kilodaltons)-α-polyaspartic Acid (20.0 Polymer) Block Copolymer [Example C-2]	–	–	–	–	–	–	–	–	60 mg/kg	stronger tumor proliferation suppressing action	0.800 ± 0.371	stronger tumor proliferation suppressing action	0.81 ± 0.17	–
Cabazitaxel (CBZ) Conjugate of polyethylene glycol (12 Kilodaltons)-α,β-polyaspartic Acid (23.8 Polymer) Block Copolymer [Comparative Example C-1, reference compound]	–	–	–	–	–	–	–	–	60 mg/kg	stronger tumor proliferation suppressing action	0.484 ± 0.083	stronger tumor proliferation suppressing action	0.78 ± 0.09	Number of blood reticulocytes [6]: 18.49 ± 13.10 ×10^4/μL; prolonged hematotoxicity ([6]; 5 days after administration): prolonged hematotoxicity was recognized
Cabazitaxel (CBZ) and n-butylamine Conjugate of polyethylene glycol (2 Kilodaltons)-α,β-polyaspartic Acid (12.5 Polymer) Block Copolymer [Example C-1]	–	–	–	–	–	–	–	–	60 mg/kg	stronger tumor proliferation suppressing action	0.560 ± 0.201	stronger tumor proliferation suppressing action	0.83 ± 0.10	Number of blood reticulocytes [6]: 52.69 ± 13.95 ×10^4/μL; prolonged hematotoxicity ([6]; 5 days after administration): prolonged hematotoxicity was not recognized
